Results as given in patent US10919937B2, “Bicyclic peptide ligands and uses thereof” (BicycleTx Limited, priority 2018, dated 2021).
*1 amine or outer side, *2 acyl side, *3 side chain or, on linkers, in order; H or OH if unused. Where a SMILES comes first, the peptide text is derived from it. Bridges are numbered along the chain shown (N, C = ends). [ ]: non-standard residue; d: D form. X11 = O=C(C[*:1])N1CCN(c2ccc(-c3nc(-c4ccc(N5CCN(C(=O)C[*:2])CC5)cc4)nc(-c4ccc(N5CCN(C(=O)C[*:3])CC5)cc4)n3)cc2)CC1; X7 = O=C(c1ccc(C[*:1])cc1)N1CN(C(=O)c2ccc(C[*:2])cc2)CN(C(=O)c2ccc(C[*:3])cc2)C1

Columns and labels:
[1] = target: CAIX (Homo sapiens, UniProt Q16790); conditions: bicyclic peptide formed with TBMB scaffold; CAIX binder; cited from earlier work
[2] = target: T1, EphA2 (Homo sapiens, UniProt P29317); test: EphA2 SPR Assay; type: binding; conditions: n = 2
T1 construct: purchased
Method: SPR Measurements: Non-Fc fusion proteins were biotinylated with EZ-Link™ Sulfo-NHS-LC-Biotin for 1 hour in 4 mM sodium acetate, 100 mM NaCl, pH 5.4 with a 3× molar excess of biotin over protein. The degree of labelling was determined using a Fluorescence Biotin QuantificationKit (Thermo) after dialysis of the reaction mixture into PBS. For analysis of peptide binding, a Biacore T200 10 instrument was used utilising a XanTec CMD500D chip. Streptavidin was immobilized on the chip using standard amine-coupling chemistry at 25° C. with HBS—N (10 mM HEPES, 0.15 M NaCl, pH 7.4) as the running buffer. Briefly, the carboxymethyl dextran surface was activated with a 7 min injection of a 1:1 ratio of 0.4 M 1-ethyl-3-(3-dimethylaminopropyl) carbodiimide hydrochloride (EDC)/0.1 M N-hydroxy succinimide (NHS) at a flow rate of 10 μl/min. For capture of streptavidin, the protein was diluted to 0.2 mg/ml in 10 mM sodium acetate (pH 4.5) and captured by injecting 120 μl onto the activated chip surface. Residual activated groups were blocked with a 7 min injection of 1 M ethanolamine (pH 8.5):HBS—N (1:1). Buffer was changed to PBS/0.05% Tween 20 and biotinylated EphA2 was captured to a level of 500-1500 RU using a dilution of protein to 0.2 μM in buffer. […]

[3] = target: MT1-MMP (Homo sapiens, UniProt P50281); conditions: bicyclic peptide formed with TBMB scaffold; MT1-MMP binder; cited from earlier work

T1 sequence (P29317 24-976, species assumed): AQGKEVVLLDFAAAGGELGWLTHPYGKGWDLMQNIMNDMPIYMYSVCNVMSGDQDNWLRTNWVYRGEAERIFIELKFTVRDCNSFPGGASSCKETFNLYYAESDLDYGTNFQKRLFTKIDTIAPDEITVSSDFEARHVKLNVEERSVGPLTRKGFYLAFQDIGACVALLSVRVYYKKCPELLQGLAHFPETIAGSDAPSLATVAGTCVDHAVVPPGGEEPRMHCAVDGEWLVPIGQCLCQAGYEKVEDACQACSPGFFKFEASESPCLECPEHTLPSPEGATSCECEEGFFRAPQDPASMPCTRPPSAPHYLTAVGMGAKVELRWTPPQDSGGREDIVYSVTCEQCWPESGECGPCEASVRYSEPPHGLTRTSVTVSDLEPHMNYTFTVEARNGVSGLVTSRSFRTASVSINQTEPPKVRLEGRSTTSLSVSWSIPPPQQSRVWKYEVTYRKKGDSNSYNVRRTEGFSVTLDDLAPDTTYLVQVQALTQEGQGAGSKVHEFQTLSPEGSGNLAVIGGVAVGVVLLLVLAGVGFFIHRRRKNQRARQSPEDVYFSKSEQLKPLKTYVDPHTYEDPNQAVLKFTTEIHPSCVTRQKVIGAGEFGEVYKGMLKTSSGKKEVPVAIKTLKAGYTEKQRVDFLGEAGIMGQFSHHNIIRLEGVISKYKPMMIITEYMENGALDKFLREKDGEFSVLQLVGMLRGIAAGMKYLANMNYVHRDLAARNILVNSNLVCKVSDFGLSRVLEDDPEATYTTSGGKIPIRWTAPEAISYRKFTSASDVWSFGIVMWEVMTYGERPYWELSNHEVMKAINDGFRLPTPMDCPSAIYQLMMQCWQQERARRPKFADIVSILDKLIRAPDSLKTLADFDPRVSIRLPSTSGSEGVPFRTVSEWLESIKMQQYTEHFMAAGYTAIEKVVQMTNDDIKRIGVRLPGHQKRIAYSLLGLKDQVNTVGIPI

| Kd [2] [nM] | Compound | other results |
| --- | --- | --- |
|  | βAla-Sar10-A-CTECWVDGWVPC (AXACTECWVDGWVPC; βAla-Sar10 N-terminal; TBMB scaffold; MOD_RES (1)..(1) Beta-Ala; MOD_RES (2)..(2) Sar10) [compound 2] | Kd [1]: 10 nM |
| > 10000 | CC(C)[C@H](NC(=O)[C@H](CC(=O)O)NC(=O)[C@H](C)N)C(=O)N[C@@H](Cc1cnc[nH]1)C(=O)N[C@H]1CSCc2ccc(cc2)C(=O)N2CN3CN(C2)C(=O)c2ccc(cc2)CSC[C@H](NC(=O)[C@H](Cc2c[nH]c4ccccc24)NC(=O)[C@H](Cc2ccccc2)NC(=O)[C@H]2CCCN2C(=O)CNC(=O)[C@H](Cc2c[nH]c4ccccc24)NC(=O)[C@@H]2CCCN2C1=O)C(=O)N1CCC[C@H]1C(=O)N[C@@H](C(C)C)C(=O)N[C@H](CC(N)=O)C(=O)N[C@H](CCCNC(=N)N)C(=O)N1CCC[C@@H]1C(=O)NCC(=O)N[C@H](C(=O)N[C@@H](C)C(=O)O)CSCc1ccc(cc1)C3=O [I-103] (H-ADVHCPWG[dP]FWCPV[dN][dR][dP]GCA-OH; linker 5-12-19 via X7) |  |
|  | βAla-Sar10-A-C(D-Ala)NE(1Nal)(D-Ala)CEDFYD(tBuGLy)C (AXACANEXACEDFYDGC; βAla-Sar10 N-terminal; non-natural residues; molecular scaffold; MOD_RES (1)..(1) Beta-Ala; MOD_RES (2)..(2) Sar10; MOD_RES (5)..(5) D-Ala; MOD_RES (8)..(8) 1Nal; MOD_RES (9)..(9) D-Ala; MOD_RES (16)..(16) tBu-Gly) [17-69-07-N241, treated with molecular scaffold reagents] | Kd [3]: 1.2 nM |
| < 500 | CC(C)[C@H](NC(=O)[C@H](CC(=O)O)NC(=O)[C@H](C)N)C(=O)N[C@@H](Cc1cnc[nH]1)C(=O)N[C@H]1CSCC(=O)N2CCN(CC2)c2ccc(cc2)-c2nc3nc(n2)-c2ccc(cc2)N2CCN(CC2)C(=O)CSC[C@H](NC(=O)[C@H](Cc2c[nH]c4ccccc24)NC(=O)[C@H](Cc2ccccc2)NC(=O)[C@H]2CCCN2C(=O)CNC(=O)[C@H](Cc2c[nH]c4ccccc24)NC(=O)[C@@H]2CCCN2C1=O)C(=O)N1CCC[C@H]1C(=O)N[C@@H](C(C)C)C(=O)N[C@H](CC(N)=O)C(=O)N[C@H](CCCNC(=N)N)C(=O)N1CCC[C@@H]1C(=O)NCC(=O)N[C@H](C(=O)N[C@@H](C)C(=O)O)CSCC(=O)N1CCN(CC1)c1ccc-3cc1 [I-104] (H-ADVHCPWG[dP]FWCPV[dN][dR][dP]GCA-OH; linker 5-12-19 via X11) |  |
